The values that follow come from article PMC6850650, “Superfolder mTurquoise2^ox optimized for the bacterial periplasm allows high efficiency in vivo FRET of cell division antibiotic targets” (Molecular Microbiology, 2019).

Experiment in all cases: FRET or BRET; in vivo in the periplasm of E. coli; donor sfTq2 or sfTq2^ox, acceptor mNG, each fused to one partner; emission spectra taken with a fluorometer and unmixed, EfA from sensitised emission; PBP5 dimerisation in CS109 ΔdacA, controls in LMC500 and CS109 ΔdacA
For orientation: In BRET a luciferase serves as donor, and the signal depends on an acceptor being close.

Series [1] concerns the target T1, FtsB-mNG (E. coli, UniProt P0A6S5 1-103).
T1 construct: cell division protein FtsB of E. coli; The end of the FP is read from the printed name; also called wild-type FtsB-mNG; source: E. coli, from plasmid, in the cells (FP in the periplasm); not shown: mNeongreen, C-terminal, kept
T1 sequence (looked up): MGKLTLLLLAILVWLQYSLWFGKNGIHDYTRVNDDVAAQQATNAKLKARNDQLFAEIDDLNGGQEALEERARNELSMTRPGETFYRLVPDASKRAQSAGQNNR
As to conditions: partners not purified.

Series [2] has as its target T2, FtsL-mNG (E. coli, UniProt P0AEN4 1-121).
T2 construct: cell division protein FtsL of E. coli; The end of the FP is read from the printed name FtsL-mNG; source: E. coli, from plasmid, in the cells (FP in the periplasm); not shown: mNeongreen, C-terminal, kept
T2 sequence (looked up): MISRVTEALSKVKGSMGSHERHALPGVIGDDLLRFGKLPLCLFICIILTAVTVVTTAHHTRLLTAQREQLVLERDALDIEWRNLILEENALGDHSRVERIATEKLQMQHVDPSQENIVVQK
The conditions noted are these: partners not purified.

Series [3] concerns the molecule itself.

B1: FtsL-sfTq2^ox (natural protein, E. coli, UniProt P0AEN4 1-121, looked up)
chain: MISRVTEALSKVKGSMGSHERHALPGVIGDDLLRFGKLPLCLFICIILTAVTVVTTAHHTRLLTAQREQLVLERDALDIEWRNLILEENALGDHSRVERIATEKLQMQHVDPSQENIVVQK
notes: cell division protein FtsL of E. coli; The end of the FP is read from the printed name; source: E. coli, from plasmid, in the cells (FP in the periplasm); not shown: sfTq2^ox, C-terminal, kept
B1: in series [1], the “EfA (FRET efficiency)” value was found to be 15.6%.

B2: FtsB-sfTq2^ox (natural protein, E. coli, UniProt P0A6S5 1-103, looked up)
chain: MGKLTLLLLAILVWLQYSLWFGKNGIHDYTRVNDDVAAQQATNAKLKARNDQLFAEIDDLNGGQEALEERARNELSMTRPGETFYRLVPDASKRAQSAGQNNR
notes: cell division protein FtsB of E. coli; The end of the FP is read from the printed name FtsB-sfTq2^ox; source: E. coli, from plasmid, in the cells (FP in the periplasm); not shown: sfTq2^ox, C-terminal, kept
On to B2, for which the “EfA (FRET efficiency)” value in series [2] came to 19.2%.

B3: PBP5 (D,D-carboxypeptidase) fused to sfTq2 (donor copy) or mNeongreen (acceptor copy) (enzyme, E. coli, UniProt P0AEB2 30-403, looked up)
chain: DDLNIKTMIPGVPQIDAESYILIDYNSGKVLAEQNADVRRDPASLTKMMTSYVIGQAMKAGKFKETDLVTIGNDAWATGNPVFKGSSLMFLKPGMQVPVSQLIRGINLQSGNDACVAMADFAAGSQDAFVGLMNSYVNALGLKNTHFQTVHGLDADGQYSSARDMALIGQALIRDVPNEYSIYKEKEFTFNGIRQLNRNGLLWDNSLNVDGIKTGHTDKAGYNLVASATEGQMRLISAVMGGRTFKGREAESKKLLTWGFRFFETVNPLKVGKEFASEPVWFGDSDRASLGVDKDVYLTIPRGRMKDLKASYVLNSSELHAPLQKNQVVGTINFQLDGKTIEQRPLVVLQEIPEGNFFGKIIDYIKLMFHHWFG
notes: PBP5 (D,D-carboxypeptidase, encoded by dacA) of E. coli; Self-association measured between two differently fused copies (sfTq2-PBP5 and mNG-PBP5); PBP5's own signal peptide is probably replaced by that of DsbA (surmised); also called sfTq2-PBP5; DsbA^ss-FP-PBP5; source: E. coli CS109 ΔdacA, from plasmid, in the periplasm of the cells; not shown: sfTq2 (on the donor copy), N-terminal, kept; …
For B3, the “EfA (FRET efficiency)” value in series [3] is 4.2%.

B4: PBP5^S44G (inactive mutant) fused to sfTq2 (donor copy) or mNeongreen (acceptor copy) (enzyme, E. coli, UniProt P0AEB2 30-403, looked up)
chain: DDLNIKTMIPGVPQIDAESYILIDYNSGKVLAEQNADVRRDPAGLTKMMTSYVIGQAMKAGKFKETDLVTIGNDAWATGNPVFKGSSLMFLKPGMQVPVSQLIRGINLQSGNDACVAMADFAAGSQDAFVGLMNSYVNALGLKNTHFQTVHGLDADGQYSSARDMALIGQALIRDVPNEYSIYKEKEFTFNGIRQLNRNGLLWDNSLNVDGIKTGHTDKAGYNLVASATEGQMRLISAVMGGRTFKGREAESKKLLTWGFRFFETVNPLKVGKEFASEPVWFGDSDRASLGVDKDVYLTIPRGRMKDLKASYVLNSSELHAPLQKNQVVGTINFQLDGKTIEQRPLVVLQEIPEGNFFGKIIDYIKLMFHHWFG
notes: PBP5 (D,D-carboxypeptidase, encoded by dacA) of E. coli with S44G; Self-association measured between two differently fused copies; source: E. coli CS109 ΔdacA, from plasmid, in the periplasm of the cells; not shown: sfTq2 (on the donor copy), N-terminal, kept; mNeongreen (on the acceptor copy), N-terminal, kept
Regarding B4, in series [3], the “EfA (FRET efficiency)” value was 8.8%.
